Measured values taken from the nanobody polyreactivity screen of Harvey et al. (2022).

Test: yeast display, Sf9 membrane polyspecificity reagent, FACS + sequencing; frameworks hold sequencing errors
In short: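 A synthetic nanobody library was expressed on Saccharomyces cerevisiae BJ5465 by galactose induction for 36–48 hours. The library was stained for 1 hour at 4 °C with 10% biotinylated, detergent-solubilized Sf9 membrane reagent and enriched with streptavidin microbeads before FACS. Low and high (top ~1%) gates were set on anti-HA fluorescence for expression and streptavidin fluorescence for reagent binding, and each polyreactivity label reflects the gate of origin.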

| Sequence | polyreactivity (PSR sort gate) |
| --- | --- |
| QVQLVESGGGLVQARGSLRLSCAASGRIFRKYDMGWYRQAPGKERELVAAISGTGITYYADSVKGRFTISRDNAKNTVYLQMNSMKPEDTAVYYCARGSKPRAWSWAYPSDTSIYDYWGQGTQVTVSS | low polyreactivity |
| QVQLVESGGGLVQARGSLRLSCAASGRIFWSNAMGWYRQAPGKERELVAAISYSGDSTYYADSVKGRFTISRDNAKNTVYIQMKSLKPEDTAVYYCTAVGHRSYRYDYWGQGTQVTVSS | high polyreactivity |
| QVQLVESGGGLVQARGSLRLSCAASGRTFGPYAMGWYRQAPGKERELVAAISSSEGSTYYADSVKGRFTISRDIAKYSVYLQMNSMKPEDTAVYYCNARYYLWSTTRWYGYDYWGQGTQVTVSS | high polyreactivity |
| QVQLVESGGGLVQARGSLRLSCAASGSIFLYYAMGWYRQAPGKEREFVAAISIIGGSTYYADSVKGRFTISRDNAKNTVYLQMNSLKPEDTAVYYCAADYYYHRWTSVEGGYWGQGTQVTVSS | low polyreactivity |
| QVQLVESGGGLVQARGSLRLSCAASGSIFRSYAMGWYRQAPGKERELVAAITSGGNTYYADSVKGRFTISRDNAKNTVYLQMNSLKPEDTAVYYCAKRRYNYLSDYDYWGQGTQVTVSS | low polyreactivity |
| QVQLVESGGGLVQARGSLRLSCAASGSIFYYNTMGSDRQAPGKEREFVAAITYSGGSTYYSDSVKGRFTISRDKAKKTVYLLMNSLKPEDTAVYYCAAYIFYFSGGLNNRGTRGYWGQGTQVTVSS | low polyreactivity |
| QVQLVESGGGLVQARGSLRLSCAASGSTFGRYVMGWYRQAPGKERELVAAISKNAGSTYYADSVKGRFTISRDNAKNTVYLQMTSLKPEDTAVYYCAADWRTKGYDSLGQGTQVTVSS | high polyreactivity |
| QVQLVESGGGLVQARGSLRLSCAASGSTFPYYAMGWYRQAPGKARELVAAITSSTGRTYYADSVKGRFTISRDNAKNTVYLQMNSLKPEDTAVYYSNAEVYSDPYNDHDYWGQGTQVTVSS | low polyreactivity |
| QVQLVESGGGLVQARGSLRLSCAASGSTFVQNAMGWYRQAPGKEREFVAAIRVSGDNTYYADSVKGRFTISLDNAKNTVYLQMNSLKPEDTAVYYFAATGTFVGSVDYWGQGTQVTVSS | low polyreactivity |
| QVQLVESGGGLVQARGSLRLSCAASGSTLRRYAMGWYRQAPGKERELVAAISSSGGSTYYADSVKGRFTISRDNAKNTVYLQMNSLKPEDTAVYYCAALVRKRVNTYQGYYPGDYWGQGTQGTVSS | high polyreactivity |
| QVQLVESGGGLVQARGSLRLSCAASGSTVGYNAMGWYRQAPGKERELVAAISGNGGSTYADSVKGRFTISRDNAKNTVYLQMNSLKPEDTAVYYCAAVQYGYGLASDSIFDYWGQGTQVTVSS | high polyreactivity |
| QVQLVESGGGLVQARGSLRLSCAASVITFRHNTMGWYRQAPGKERELVSTNYADSVKGRFTISRDNAKNTVYLQMNSLKQEDTAVYYCNADGTFEYDYWGQGTQVTVSS | low polyreactivity |
| QVQLVESGGGLVQARGSLRLSCAATGRTFQIYAMGWYRQAPGKERELVAAISSGGRTNYADSVKGRFTISRDNAKNTVYLQMNSLKPEDTAVYYCAKRWARPGMDYWGQGTQVTVSS | high polyreactivity |
| QVQLVESGGGLVQARGSLRLSCASSGRTFYTYAMGWYRQAPGKERELVAAIRRVGSTNYADSVKGRFTISRDNAKNTGYLQMNSLKPEDTAVYYCAVRLVWPWQGYDYWGQGTQVTVSS | low polyreactivity |
| QVQLVESGGGLVQARGSLRLSCASSGSIFGWNAMGGYRQAPGKERELVAAISSVGSTYYADSVKGRFTISRDNAKNTVYLQMNSLKPEDTAVYYCAAPVIQITDVWYDAETYPDYDYWGEGTQVTVSS | low polyreactivity |
| QVQLVESGGGLVQARGSLRLSSAASGIIFYEYAMGCYRQAPGKERELVAAISDTGGSTYYADSVKGRFTISRDNAKNTVYLQMNSLKPEDTAVYYCAAEYLAYYSGYDYWGQGTQVTVSS | high polyreactivity |
| QVQLVESGGGLVQARGSLRLSSAPSGRTFTVYAMGWYRHARGKERELVAAIRRTGSTYYADSVKGRFTISRDNAKNTVYLQMNSLKPEDTAVYYCYARPSTGWSIYGVDYWGQGTQGTVSS | low polyreactivity |
| QVQLVESGGGLVQARGSLRLSWAASGSTFQVYAMGWSRPAPGKERELVAAINYSGGSTYYADSVKGRFTISRDNAKNTVYVLMNSLKPEDTAVYYCAVKLRSRAGTSYGYWGQGTQVTVSS | high polyreactivity |
| QVQLVESGGGLVQARGSLRLTCAASGYIFSAYAMGWYRQAPGKERELVAAISRGGSTKYADSVKGRFTISRDNAKNTVSLQMNSVKPEDPAVYDCATVVYHRRPPRTGHEYWGQGTQVTVSS | high polyreactivity |
| QVQLVESGGGLVQARGTLRLSCAASGFTVFSYAMGWYRQAPGKESELVASISGSSSTYYADSVKGRFTISRDNAKNTVSVQMNSLTPDDTAVYYCAVDYHQAWPSGDYWFEYDYWGQGTQVTVSS | low polyreactivity |

| Sequence | polyreactivity (PSR sort gate) |
| --- | --- |
| QVQLVESGGGLVQARRSLRLSCAASGITFVFYTMGWYRQAPGKERELVAAITSSGVRTSYADSVKGRFTISRDNAMNTVYLQMNSLKPEDTAVYYCAAKPTYVHKPGYNYWGQGTQVTVSS | high polyreactivity |
| QVQLVESGGGLVQARRSLRLSCAASGSTFVGNTMGWYRQAPGTERELVAAISRRGGGTNYADSVKGRFTISRDNAKNTVYLQMNSLKPEDTAVYYCAAKLVYPGKFNYWGQGTQVTVSS | high polyreactivity |
| QVQLVESGGGLVQARVSLRLSCPASGRIFARYALGSSRQAPGTEREFVAAISRGGSTKYADSEKGRFTISRDNAKNTVYLQMNSLKPEDTAVYYCARQLWGSAYGAYYAGDYWGQGTQVTVSS | low polyreactivity |
| QVQLVESGGGLVQARVSLRLSSAASGFIIYPYVMGWYRQAPGKERELVATIRTDGRTSYADSVKGRFTISRDNAKNTFYLQMNSLKPEDTAVYYCDARSPLYYIVPYELVQYDYWGLGTQVTVSS | high polyreactivity |
| QVQLVESGGGLVQAVGSLLLSCAASGSTFRYNAMGWYRQAPGKEREFVATISWTTGSSYYADSVKGRFTISRDNAKNTVYLQLNSLKPEDTAFYFCAADASLFSDFRDYDYWGQGTQVPVSS | low polyreactivity |
| QVQLVESGGGLVQAVGSLRLSCAASGFIFVRYAMGWYRQAPAKERELVAAISYSGGSTYYADSVKGRFTISRDNAKNTVYLQMNSLKPEDTAVYYCAAEYYSGGYRYYAEYGYWGQGTQVTVSS | high polyreactivity |
| QVQLVESGGGLVQAVGSLRLSCAASGFISKYYAMGWYRQAPGKERELVASISRDGSTSYADSVKGRFTISRDNAKNTVYLQMNSLKPEDTAVYYCAAPSYRTRYYYWGQGTQVTVSS | high polyreactivity |
| QVQLVESGGGLVQAVGSLRLSCAASGGIITSSAMGWYRLAPGKEWELVAAITGIGGRTYYADSVKGRFTISRDNAKNTVYLQMNSLKPEDTAVYYCKAAYTYVTAWYYYCGQGTQVTVSS | high polyreactivity |
| QVQLVESGGGLVQAVGSLRLSCAASGITFRWYTMGWYRQAPGKERELVASIRYGGGSTYYADSVKGRFTISRDNAKNTVYLQMNSLKPEDTAVYYCDAESAWTSPYDYWGQGTQVTVSS | high polyreactivity |
| QVQLVESGGGLVQAVGSLRLSCAASGLTFYSNAMGWYRQAPGKERELVATISQDGGRTYYADSVKGRFTISRDNAKNTVYLQMNSLKPEDTAVYYCAKDLYHTVGRYDYWGQGTQVTVSS | low polyreactivity |
| QVQLVESGGGLVQAVGSLRLSCAASGNIFHRNAMGWYRQAPGKEMELVAAISWSGGSTYYADSVKGRFTISRDNAKNTVYLQMNSLKPEDTAVYFCNAYYYYRFKPSHPGLRSYYWGQGTQVTVSS | high polyreactivity |
| QVQLVESGGGLVQAVGSLRLSCAASGRTFAFYTMGWYRPAHGKERELVAAINWSGTRTYYADSVKGRVTISRDKAKNTVYLQMNSLKPEDTAVYYCNVAFFSLSLRTLGVEYWGQGTQVTVST | high polyreactivity |
| QVQLVESGGGLVQAVGSLRLSCAASGSIFLLYDMGWYRPAPGKERELVAAITWSGGSTYYADSVKGRFTISRDNAKNTVYLQMNSLKPEDTAVYYCAADEPYPTAYEYWGQGTQVTVSS | low polyreactivity |
| QVQLVESGGGLVQAVGSLRLSCAASGSTFGKNAMGWYRQAPGKERELVAAISTSGTRSFYADSVKGRFTISRDTAKNTVYLQMNSLKPEDTAVYYCNAGRSSRAYYYWGQGTQVTVSS | high polyreactivity |
| QVQLVESGGGLVQAVGSLRLSCAASGSTTFYAMGSYRQAPRKEWELVATISSSAGSTYYADSVKGRFTISRDNAKNTVFFQMNSLKPEDTAVFYCNAADAVSDYPDFHIYDYWGQGTQVTVSS | low polyreactivity |
| QVQLVESGGGLVQAVGSLRLSCAASGTFARYAMGWYRQGPGKERELVAAISSRGGSTYYADSVKGRFTISRDNAENTVYLQMNSLKPEDTAVYYCAAAHQYYPEYYYWGQGTQVTVSS | high polyreactivity |
| QVQLVESGGGLVQAVGSLRLSCAPSGSTFFKYARGWYRQAPGKERELVAVITRSGGTTYYADSVKGRFTISRDNAKNTVYLLMNSLKPEDTAVYYCAAGYYQYHRGYPTFTRYDYWGQGTQVTVSS | high polyreactivity |
| QVQLVESGGGLVQAVVSLRLSCAASGGTITSYAMVSSRQAPGKERELVAAITRSGGSTYYADSVKGRFTISRDNAKNTVYLQMKSLKPEDTAVYYCAARYWHSYGYWGQGTQVTVSS | high polyreactivity |
| QVQLVESGGGLVQEGGCLRLSCAASGSIFQGYAMGWYRQAPGKERELVAAITTDGDSTYYADSVKGRFTISRDNAKNTDYLEMNSLKPVDTAVYYCAADQDGRWEGSSEQGDSWGQGTQVTVSS | low polyreactivity |
| QVQLVESGGGLVQEGGILPLSCAASGFIFGDYVMGWYRQAPGKERELVAAINRNGGRTYYADSVKGRFTISRDYAKNTVYLQMNSLKPEDTAVFYCAAVFRSDRYHWYYYWGQGTQVTVSS | high polyreactivity |
